According to patent KR20210053410A:

Target: 개 인플루엔자 바이러스 H3N2 (Canine influenza virus H3N2)
Assay: cell-based or functional assay

B1: 개 인플루엔자 바이러스 단일클론항체 3E2 (antibody, V domains shown)
VH: EVKLVESGGGLVQPGGSLRLSCATSGFTFTDYYMSWVRQPPGKALEWLGFIRNKANGYTTEYSASVKGRFTISRDNSQSILYLQMNTLRPEDSATYYCARDTPVARGVCLLGQGTLVTVSA
VL: DIVMTQSPSSLAVSAGEKVTMSCKSSQSLLNSRTRQNYLAWYQQKPGQSPKLLIYWASTRESGVPDRFTGSGSGTDFTLTISSVQAEDLAVYYCKQSYSLWTFGGGTKLEIK
B1 gave an HI titer (3E2 mAb 하이브리도마 상층액) of 128 and an HI titer (3E2 mAb) of 131000.
